Data taken from PMC10397247.
Values belong to the binder of their own block, whether it stands above or below them.

How the values were obtained:
[1] = biological target: T1, O8-AA; test: two-hybrid library CCmax;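 also: natural log of median RNA to DNA barcode read ratio; higher means stronger binding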
T1 chain: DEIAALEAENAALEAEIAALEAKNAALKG

[2] = biological target: T2, P10-AA; test: two-hybrid library CCmax; details: mean of both orientations;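 also: natural log of median RNA to DNA barcode read ratio; higher means stronger binding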
T2 chain: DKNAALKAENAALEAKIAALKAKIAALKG

[3] = biological target: T3, P9-AA; test: two-hybrid library CCmax; details: mean of both orientations;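 also: natural log of median RNA to DNA barcode read ratio; higher means stronger binding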
T3 chain: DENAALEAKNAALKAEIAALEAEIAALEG

[4] = biological target: T4, 4H3041-bA; test: two-hybrid library CCNG1;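 also: natural log of median RNA to DNA barcode read ratio; higher means stronger binding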
T4 chain: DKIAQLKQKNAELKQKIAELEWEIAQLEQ

[5] = biological target: T5, 4H3297-bA; test: two-hybrid library CCNG1;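 also: natural log of median RNA to DNA barcode read ratio; higher means stronger binding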
T5 chain: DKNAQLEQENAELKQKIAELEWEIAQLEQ

[6] = biological target: T6, 4H3364-bA; test: two-hybrid library CCNG1;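 also: natural log of median RNA to DNA barcode read ratio; higher means stronger binding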
T6 chain: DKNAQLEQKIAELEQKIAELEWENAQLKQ

[7] = biological target: T7, 4H3381-bA; test: two-hybrid library CCNG1
T7 chain: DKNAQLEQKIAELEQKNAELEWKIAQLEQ

[8] = biological target: T8, 4H349-bA; test: two-hybrid library CCNG1
T8 chain: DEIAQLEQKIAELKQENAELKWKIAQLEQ

[9] = biological target: T9, 4H56-bA; test: two-hybrid library CCNG1
T9 chain: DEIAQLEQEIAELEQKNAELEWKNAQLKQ

[10] = biological target: T10, 4H730-bA; test: two-hybrid library CCNG1
T10 chain: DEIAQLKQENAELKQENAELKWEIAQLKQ

[11] = biological target: T11, 4H796-bA; test: two-hybrid library CCNG1
T11 chain: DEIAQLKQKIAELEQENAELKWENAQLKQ

[12] = biological target: T12, 4H932-bA; test: two-hybrid library CCNG1
T12 chain: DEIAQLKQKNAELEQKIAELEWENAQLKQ

[13] = biological target: T13, 4H949-bA; test: two-hybrid library CCNG1
T13 chain: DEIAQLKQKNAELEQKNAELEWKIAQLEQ

- interaction score [1]: -1.16
- interaction score [2]: -0.856
- interaction score [3]: -1.26
B1: O8-AA (peptide)
chain: DEIAALEAENAALEAEIAALEAKNAALKG

- interaction score [4]: 0.985
- interaction score [5]: -0.21
- interaction score [6]: -1
- interaction score [7]: -1.17
- interaction score [8]: -1.44
- interaction score [9]: 0.805
- interaction score [10]: -1.65
- interaction score [11]: -1.16
- interaction score [12]: -0.693
- interaction score [13]: -1.15
B2: 4H3041-bA (peptide)
chain: DKIAQLKQKNAELKQKIAELEWEIAQLEQ
